The text below walks through data of US20180298070A1, “PEPTIDE COMPOUND” (Takeda Pharmaceutical Company Limited, published 2018).

Positions count from the first letter of the chain named. Non-standard residues stand in square brackets, D forms with d. Groups on a side chain read outwards from the residue. Primed or numbered codes have the meaning given here. No end group written: not given here. *: point of attachment. C20 diacid = O=C(O)CCCCCCCCCCCCCCCCCCC(=O)*; Iva = CC[C@](C)(N)C(=O)O; Aib = CC(C)(N)C(=O)O

Assay [1] has as its target T1, human GLP-1R (human), P43220.
T1 chain: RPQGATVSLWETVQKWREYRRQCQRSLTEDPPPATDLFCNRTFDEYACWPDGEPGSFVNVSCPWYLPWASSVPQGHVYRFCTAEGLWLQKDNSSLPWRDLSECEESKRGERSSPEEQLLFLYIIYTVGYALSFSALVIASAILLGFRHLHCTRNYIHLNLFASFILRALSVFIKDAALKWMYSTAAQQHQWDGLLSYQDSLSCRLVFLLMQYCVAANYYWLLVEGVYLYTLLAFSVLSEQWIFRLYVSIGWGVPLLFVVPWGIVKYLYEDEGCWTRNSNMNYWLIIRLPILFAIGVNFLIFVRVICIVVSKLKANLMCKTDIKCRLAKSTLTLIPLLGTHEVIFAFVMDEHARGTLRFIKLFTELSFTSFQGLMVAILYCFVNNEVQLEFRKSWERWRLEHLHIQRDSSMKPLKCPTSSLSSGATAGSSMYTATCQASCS

Assay [2] has as its target T2, human GIPR (human), P48546.
T2 chain: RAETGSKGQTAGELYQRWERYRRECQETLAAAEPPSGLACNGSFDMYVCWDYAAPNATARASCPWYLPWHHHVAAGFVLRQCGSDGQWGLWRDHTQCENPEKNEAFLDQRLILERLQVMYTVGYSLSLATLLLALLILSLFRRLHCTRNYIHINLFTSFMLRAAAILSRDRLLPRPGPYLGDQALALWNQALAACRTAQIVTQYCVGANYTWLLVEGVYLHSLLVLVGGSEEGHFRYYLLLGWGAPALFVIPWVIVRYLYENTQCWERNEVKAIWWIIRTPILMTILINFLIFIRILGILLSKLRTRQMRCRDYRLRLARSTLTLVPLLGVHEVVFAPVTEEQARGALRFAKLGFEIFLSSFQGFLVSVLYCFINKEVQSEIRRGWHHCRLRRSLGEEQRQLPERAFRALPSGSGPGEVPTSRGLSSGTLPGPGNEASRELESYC

The target of assay [3] is T2, human GIPR (human), P48546. Put plainly: [125I]GIP competition, human GIPR VLP.
Assay [4] concerns the target T3, human GIPR (human, UniProt P48546).
T3 sequence: T2 chain
Put plainly: [125I]GIP displacement, hGIPR VLP. The protocol:
(§1) For the measurement of the binding activity to GIPR, [¹²⁵I]GIP (PerkinElmer, Inc.) in a final concentration of 100 pM and a test compound in a specified concentration were mixed to GIPR_VLP in an assay buffer (50 mM HEPES (pH 7.4, WAKO 342-01375), 5 mM EGTA (WAKO 346-01312), 5 mM MgCl₂ (WAKO 136-03995), 0.1% BSA (Merckmillipore 81-066-04) and 0.005% Tween 20 (BioRad 170-6531)) and reacted at room temperature for 2 hours. VLP to which [¹²⁵I ]GIP was bound was trapped in a GF/C glass fiber filter 96-well plate (PerkinElmer 6005274) using a cell harvester and washed with an assay buffer. The GF/C glass fiber filter 96-well plate in which VLP was trapped was dried at 42° C. overnight. Thereafter, MicroScint-O (PerkinElmer 6013611) was added to the GF/C glass fiber filter 96-well plate sealed using a backseal and the plate was sealed using a topseal. The radioactivity of each well was eventually measured using Topcount (PerkinElmer) and the binding activity of the test compound to GIPR was calculated when the [¹²⁵I]GIP binding activity in the presence of GIP in a final concentration of […] was 100% and the [¹²⁵I]GIP binding activity of the wells to which DMSO was added was 0%.

The target of assay [5] is T4, human GIPR (human, UniProt P48546).
T4 sequence: T2 chain
Put plainly: cell-based or functional assay.

Assay [6] deals with human GLP-1R (human, UniProt P43220). Put plainly: cell-based or functional assay.
Assay [7] has as its target T5, human GIPR (human, UniProt P48546).
T5 sequence: T2 chain
Put plainly: cell-based or functional assay. This is another data set of the same source.

Assay [8] concerns the target human GLP-1R (human, UniProt P43220). Put plainly: cell-based or functional assay. This is another data set of the same source.
In assay [9] the target is T6, human GIPR (human, UniProt P48546).
T6 sequence: T2 chain
Description: [125I]GIP competition, human GIPR VLP. How it is done:
as §1

B1: Compound 383 (peptide)
peptide: Y[Aib]EGTFISDYSIAK([PEG(2)-C20 diacid])DRIAQQNFVNW[Iva]LAQRPSSGAPPPS
modifications: ends and bridges not checked
On to B1, for which the Agonist activity (EC50, M) in assay [1] is greater than 1e-06 M; in assay [2], 4.3e-11 M. In [3], this molecule came in with a half-maximal inhibitory concentration (IC50) of 10 nM.

B2: Compound 389 (peptide)
peptide: Y[Aib]EGTFISDYSIAK([PEG(2)-C20 diacid])DRIAQQNFVNW[Iva]LAQR
modifications: ends and bridges not checked
With B2, the Agonist activity (EC50, M) in assay [1] was greater than 1e-06 M; in assay [2], 8e-11 M. The IC50 in assay [3] is 19 nM.

B3: Compound 385 (peptide)
peptide: Y[Aib]EGTFISDYSIALDRK([PEG(2)-C20 diacid])AQQNFVNW[Iva]LAQRPSSGAPPPS
modifications: ends and bridges not checked
Take B3: the Agonist activity (EC50, M) in assay [1] is greater than 1e-06 M; in [2], 8.3e-11 M. Besides, the IC50 in assay [3] was 15 nM.

B4: Compound 24 (peptide)
peptide: YAEGTVVSLYSIALDKQHQQEFVKWLLKGGPSSGAPPPSK
Consider B4, for which the IC50 with human GIPR [4] came out at 370 nM.

B5: Compound 26 (peptide)
peptide: B4 peptide with D15Y, Q17I
Turning to B5, the IC50 with human GIPR [4] is 420 nM.

B6: Compound 24 (peptide)
peptide: B4 peptide
Take B6: the figures for the “Agonist activity (EC50, M)” value with human GIPR [5] and with human GLP-1R [6] were 5.1e-09 M and greater than 1e-06 M, respectively.

B7: Compound 26 (peptide)
peptide: B4 peptide with D15Y, Q17I
For B7, the “Agonist activity (EC50, M)” value in the assay with human GIPR [5] is 1.2e-08 M; with human GLP-1R [6], greater than 1e-06 M.

B8: Compound 25 (peptide)
peptide: B4 peptide with Q17I
Turning to B8, the IC50 with human GIPR [4] came out at 520 nM.

B9: Compound 25 (peptide)
peptide: B4 peptide with Q17I
Regarding B9, the “Agonist activity (EC50, M)” value was 1.4e-09 M in the assay with human GIPR [5] and greater than 1e-06 M in the assay with human GLP-1R [6].

B10: Compound 391 (peptide)
peptide: Y[Aib]EGTFISDYSIALDRK([PEG(2)-C20 diacid])AQQNFVNW[Iva]LAQR
modifications: ends and bridges not checked
In the case of B10, the Agonist activity (EC50, M) in assay [1] is greater than 1e-06 M; in assay [2] it was 1.1e-10 M. Besides, the IC50 in [3] came out at 34 nM.

B11: Compound 404 (peptide)
peptide: Y[Aib]EGTFISDYSIALDRK([PEG(2)-C20 diacid])AQQNFVNW[Iva]LAQRPSSGAPPPS
modifications: not fully specified (C-terminus); ends and bridges not checked
Consider B11, for which the results for the Agonist activity (EC50, M) in assay [1] and in [2] were greater than 1e-06 M and 1.1e-10 M, respectively. In addition, in [3], the IC50 is 24 nM.

B12: Compound 387 (peptide)
peptide: Y[Aib]EGTFISDYSK([PEG(2)-C20 diacid])ALDRIAQQNFVNW[Iva]LAQR
modifications: ends and bridges not checked
Take B12: the Agonist activity (EC50, M) in assay [1] is greater than 1e-06 M; in assay [2] it was 5.9e-11 M. In assay [3], this molecule came in with an IC50 of 8.2 nM.

B13: Compound 30 (peptide)
peptide: Y[Aib]EGTVVSLYSI[Aib]LDRQAQ[Aib]EFVRWLLRGGPSSGAPPPSR-NH2
modifications: N-terminus assumed
SMILES: CC[C@H](C)[C@H](NC(=O)[C@H](CO)NC(=O)[C@H](Cc1ccc(O)cc1)NC(=O)[C@H](CC(C)C)NC(=O)[C@H](CO)NC(=O)[C@@H](NC(=O)[C@@H](NC(=O)[C@@H](NC(=O)CNC(=O)[C@H](CCC(=O)O)NC(=O)C(C)(C)NC(=O)[C@@H](N)Cc1ccc(O)cc1)[C@@H](C)O)C(C)C)C(C)C)C(=O)NC(C)(C)C(=O)N[C@@H](CC(C)C)C(=O)N[C@@H](CC(=O)O)C(=O)N[C@@H](CCCNC(=N)N)C(=O)N[C@@H](CCC(N)=O)C(=O)N[C@@H](C)C(=O)N[C@@H](CCC(N)=O)C(=O)NC(C)(C)C(=O)N[C@@H](CCC(=O)O)C(=O)N[C@@H](Cc1ccccc1)C(=O)N[C@H](C(=O)N[C@@H](CCCNC(=N)N)C(=O)N[C@@H](Cc1c[nH]c2ccccc12)C(=O)N[C@@H](CC(C)C)C(=O)N[C@@H](CC(C)C)C(=O)N[C@@H](CCCNC(=N)N)C(=O)NCC(=O)NCC(=O)N1CCC[C@H]1C(=O)N[C@@H](CO)C(=O)N[C@@H](CO)C(=O)NCC(=O)N[C@@H](C)C(=O)N1CCC[C@H]1C(=O)N1CCC[C@H]1C(=O)N1CCC[C@H]1C(=O)N[C@@H](CO)C(=O)N[C@@H](CCCNC(=N)N)C(N)=O)C(C)C
Consider B13, for which the “Agonist activity (EC50, M)” value in the assay with human GIPR [5] is 1e-11 M; with human GLP-1R [6], greater than 1e-06 M.

B14: Compound 381 (peptide)
peptide: Y[Aib]EGTFISDYSK([PEG(2)-C20 diacid])ALDRIAQQNFVNW[Iva]LAQRPSSGAPPPS
modifications: ends and bridges not checked
On to B14, for which the Agonist activity (EC50, M) in assay [1] was greater than 1e-06 M; in assay [2], 4.4e-11 M. Also, the IC50 in [3] is 8.7 nM.

B15: Compound 408 (peptide)
peptide: Y[Aib]EGTFISDYSIALDRK([PEG(2)-C20 diacid])AQQNFVNW[Iva]LAQRPSSGAPPPS
modifications: not fully specified (C-terminus); ends and bridges not checked
On to B15, for which the values for the Agonist activity (EC50, M) in assay [1] and in assay [2] were greater than 1e-06 M and 4.8e-10 M, respectively. For the same molecule, the IC50 in assay [3] was determined as 84 nM.

B16: Compound 307 (peptide)
peptide: YXEGTXISDYSIXLDRXAQXNFVNWXLAQRPSSGAPPPS
modifications: not fully specified; MeTyr at 1; Aib at 2, 13, 20; Iva at 6, 26; Lys(Eda-PEG(3)-PEG(3)-) at 17; C-terminal amide (-NH2)
For B16, the “Agonist activity (EC50, M)” value with human GIPR [7] was 4e-11 M; in the assay with human GLP-1R [8], greater than 1e-06 M.

B17: Compound 341 (peptide)
peptide: B16 peptide with L14X
modifications: MeTyr at 1; Aib at 2, 13, 17, 20; Iva at 6, 26; Lys(Eda-GGGGG-) at 14; C-terminal amide (-NH2)
In the case of B17, the “Agonist activity (EC50, M)” value with human GLP-1R [8] was greater than 1e-06 M.

B18: Compound 307 (peptide)
peptide: B16 peptide
modifications: not fully specified; N-methyl on Tyr 1; Aib at 2, 13, 20; Iva at 6, 26; Lys(Eda-PEG(3)-PEG(3)-) at 17; C-terminal amide
As to B18, in the assay with human GIPR [4], the IC50 is 5 nM.

B19: Compound 484 (peptide)
peptide: B16 peptide with L14X, A18H
modifications: N-terminal methyl (Me-Tyr); Aib at 2, 13, 17, 20; Iva at 6, 26; Lys(Oda-GGGGGG-) at 14; C-terminal NH2
As for B19, the IC50 with human GIPR [9] worked out at 10 nM.

B20: Compound 496 (peptide)
peptide: B16 peptide
modifications: N-terminal methyl (Me-Tyr); Aib at 2, 13, 20; Iva at 6, 26; Lys(Oda-GGGGGG-) at 17; C-terminal NH2
Molecule B20 showed an IC50 with human GIPR [9] of 10 nM.

B21: Compound 342 (peptide)
peptide: B16 peptide with L14X
modifications: Me-Tyr at 1; Aib at 2, 13, 17, 20; Iva at 6, 26; Lys(Eda-GGGGGG-) at 14; C-terminal amide (-NH2) (as printed for SEQ ID NO: 355 in the 1st table)
For B21, the “Agonist activity (EC50, M)” value with human GLP-1R [8] is greater than 1e-06 M.

B22: Compound 503 (peptide)
peptide: B16 peptide with A18H
modifications: N-terminal methyl (Me-Tyr); Aib at 2, 13, 20; Iva at 6, 26; Lys(Heda-GGGGGG-) at 17; C-terminal NH2
The molecule B22 came in with an IC50 with human GIPR [9] of 8 nM.

B23: Compound 521 (peptide)
peptide: B16 peptide with L14X, A18H
modifications: N-terminal methyl (Me-Tyr); Aib at 2, 13, 17, 20; Iva at 6, 26; Lys(Eda-GGGGGG-) at 14; C-terminal NH2
B23: the IC50 in the assay with human GIPR [9] was 20 nM.

B24: Compound 349 (peptide)
peptide: B16 peptide
modifications: MeTyr at 1; Aib at 2, 13, 20; Iva at 6, 26; Lys(Oda-GGGGG-) at 17; C-terminal amide (-NH2)
For the molecule B24, the “Agonist activity (EC50, M)” value with human GLP-1R [8] was greater than 1e-06 M.

One may read the IC50 as the concentration needed to halve the response being measured. Higher therefore signals lower potency.
